Results reported in US20240116985A1 (published 2024).
Starred links: 1 amine or outer side, 2 acyl side, 3 side chain; linkers in the order of their positions; H or OH if unused. Positions of bridges follow the written chain, without caps; N, C: chain ends. Non-standard residues stand in square brackets, D forms with d. Primed or numbered codes have the meaning given here. PyrS2″ = (S)-3-amino-1-((pent-4-en-1-yloxy)carbonyl)pyrrolidine-3-carboxylic acid (stapling residue), C=CCCCOC(=O)N1CC[C@@](N[*:1])(C(=O)[*:2])C1; (RDMAPyr)GlnR = (S)-2-amino-5-((R)-3-(dimethylamino)pyrrolidin-1-yl)-5-oxopentanoic acid, CN(C)[C@@H]1CCN(C(=O)CC[C@H](N[*:1])C(=O)[*:2])C1; B5(4) = 2,2-bis(4-pentenyl)glycine = 2-amino-2-(pent-4-en-1-yl)hept-6-enoic acid (stitching residue), C=CCCCC(CCCC=C)(N[*:1])C(=O)[*:2]; (4PyPip)GlnR = (S)-2-amino-5-oxo-5-(4-(pyridin-4-yl)piperazin-1-yl)pentanoic acid, O=C(CC[C@H](N[*:1])C(=O)[*:2])N1CCN(c2ccncc2)CC1; TfeGA = (S)-2-amino-3-((carboxymethyl)(2,2,2-trifluoroethyl)amino)propanoic acid, O=C([C@H](CN(CC(=O)[*:3])CC(F)(F)F)N[*:1])[*:2]; (EtSSPh)AspE = (S)-2-amino-4-oxo-4-(2-(phenyldisulfaneyl)ethoxy)butanoic acid, O=C(C[C@H](N[*:1])C(=O)[*:2])OCCSSc1ccccc1; (EtSSHex)AspE = (S)-2-amino-4-(2-(hexyldisulfaneyl)ethoxy)-4-oxobutanoic acid, CCCCCCSSCCOC(=O)C[C@H](N[*:1])C(=O)[*:2]; B5(19) = 2-amino-2-(pent-4-en-1-yl)hept-6-enoic acid (bis(4-pentenyl)glycine), C=CCCCC(CCCC=C)(N[*:1])C(=O)[*:2]; (Ppz)GlnR = (S)-2-amino-5-oxo-5-(piperazin-1-yl)pentanoic acid, O=C(CC[C@H](N[*:1])C(=O)[*:2])N1CCN([*:3])CC1; (Morph)GlnR = (S)-2-amino-5-morpholino-5-oxopentanoic acid, O=C(CC[C@H](N[*:1])C(=O)[*:2])N1CCOCC1; GluSH = (S)-2-amino-5-mercapto-5-oxopentanoic acid, O=C(CC[C@H](N[*:1])C(=O)[*:2])S[*:3]; B5 = 2-amino-2-(pent-4-en-1-yl)hept-6-enoic acid, C=CCCCC(CCCC=C)(N[*:1])C(=O)[*:2]; Phe(4-Cl) = N[C@@H](Cc1ccc(Cl)cc1)C(=O)O; Phe(2-F) = N[C@@H](Cc1ccccc1F)C(=O)O; Bta = N[C@@H](Cc1csc2ccccc12)C(=O)O; αAllylPro = C=CC[C@@]1(C(=O)O)CCCN1; tBuAla = CC(C)(C)C[C@H](N)C(=O)O; 3Thi = N[C@@H](Cc1ccsc1)C(=O)O; S8 = C=CCCCCCC[C@](C)(N)C(=O)O; hSer = N[C@@H](CCO)C(=O)O

B1: I-317 (peptide)
peptide: Ac-[αAllylPro]DA[B5]DDAA[Phe(2-F)]V[S8]FWQ-NH2
modifications: staple 1-4, 4-11
notes: Ac-PL3-Asp-Ala-B5-Asp-Asp-Ala-Ala-2FF-Val-S8-Phe-Trp-Gln-NH2; stapled peptide composition
B2: I-309 (peptide)
peptide: Ac-[αAllylPro]DA[B5]DDAA[Phe(4-Cl)]V[S8]FWQ-NH2
modifications: staple 1-4, 4-11; not fully specified; printed as Ac-PL3-Asp-Ala-B5-Asp-Asp-Ala-Ala-4C1F-Val-S8-Phe-Trp-Gln-NH2
notes: Ac-PL3-Asp-Ala-B5-Asp-Asp-Ala-Ala-4C1F-Val-S8-Phe-Trp-Gln-NH2; stapled peptide composition
B3: I-291 (peptide)
peptide: XDAXDDAAFVXFWA
modifications: not fully specified; N-terminal acetyl (Ac); C-terminal amide (NH2); PL3 at 1, B5 at 4, S8 at 11; stapled PL3-B5 and B5-S8
notes: Ac-PL3-Asp-Ala-B5-Asp-Asp-Ala-Ala-Phe-Val-S8-Phe-Trp-Ala-NH2; stapled peptide composition
B4: I-292 (peptide)
peptide: XDAXDDAAFVXFWA
modifications: not fully specified; N-terminal acetyl (Ac); C-terminal amide (NH2); PL3 at 1, B5 at 4, S8 at 11; stapled PL3-B5 and B5-S8
notes: as for B3
B5: I-316 (peptide)
peptide: Ac-[αAllylPro]DA[B5]DDAAFQ[S8]FWA-NH2
modifications: staple 1-4, 4-11
notes: Ac-PL3-Asp-Ala-B5-Asp-Asp-Ala-Ala-Phe-Gln-S8-Phe-Trp-Ala-NH2; stapled peptide composition
B6: I-299 (peptide)
peptide: Ac-[αAllylPro]D[hSer][B5(4)]DDAAFQ[S8]F[Bta]A-NH2
modifications: staple 1-4, 4-11
notes: Ac-PL3-Asp-Hse-B5-Asp-Asp-Ala-Ala-Phe-Gln-S8-Phe-BztA-Ala-NH2; stapled peptide composition
B7: I-294 (peptide)
peptide: Ac-[αAllylPro]DA[B5(4)]DDAAFQ[S8]F[Bta]Q-NH2
modifications: staple 1-4, 4-11
notes: Ac-PL3-Asp-Ala-B5-Asp-Asp-Ala-Ala-Phe-Gln-S8-Phe-BztA-Gln-NH2; stapled peptide composition

molecular target: T1, full-length beta-Catenin (Uniprot ID P35222) (Homo sapiens (Human), UniProt P35222 1-781); experiment: FP competition vs 5FAM-TCF4(10-53) probe on full-length beta-catenin
T1 construct: the AlphaScreen used a Histidine (Nickel Chelate) detection kit, so a His tag is likely but not described; also called B-Catenin; bCat
T1 sequence: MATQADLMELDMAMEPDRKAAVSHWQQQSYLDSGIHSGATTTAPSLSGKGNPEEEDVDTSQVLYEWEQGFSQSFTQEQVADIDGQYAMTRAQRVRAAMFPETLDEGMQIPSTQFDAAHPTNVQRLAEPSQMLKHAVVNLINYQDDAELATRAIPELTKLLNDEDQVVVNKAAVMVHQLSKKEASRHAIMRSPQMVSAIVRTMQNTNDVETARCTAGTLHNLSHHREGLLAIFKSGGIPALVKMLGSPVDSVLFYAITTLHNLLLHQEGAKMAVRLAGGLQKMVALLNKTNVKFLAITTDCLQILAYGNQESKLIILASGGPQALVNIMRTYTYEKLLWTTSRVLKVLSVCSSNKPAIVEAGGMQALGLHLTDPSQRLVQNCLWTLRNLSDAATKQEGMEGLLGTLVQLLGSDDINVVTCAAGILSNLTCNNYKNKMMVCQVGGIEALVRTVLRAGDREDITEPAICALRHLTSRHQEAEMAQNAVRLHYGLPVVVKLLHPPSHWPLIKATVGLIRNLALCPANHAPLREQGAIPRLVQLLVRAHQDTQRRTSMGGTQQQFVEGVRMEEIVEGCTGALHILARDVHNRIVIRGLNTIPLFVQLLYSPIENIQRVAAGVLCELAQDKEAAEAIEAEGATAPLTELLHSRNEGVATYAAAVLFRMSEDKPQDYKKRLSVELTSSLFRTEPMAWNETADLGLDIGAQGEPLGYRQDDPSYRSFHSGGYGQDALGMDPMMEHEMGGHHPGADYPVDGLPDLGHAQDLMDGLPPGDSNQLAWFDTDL
Description: The plate was incubated protected from light for 60 minutes at 20° C. prior to read. Reads were performed on a CLARIOstar plate reader (BMG Labtech) in duplicate, and data were fitted to a 1:1 binding model with hill slope using an in-house script. All provided concentrations are final concentrations.

Row | Binder | EC50 [µM]
1 | B1 | 5
2 | B2 | 3.12
3 | B3 | 3.13
4 | B4 | 1.87
5 | B5 | 3.98
6 | B6 | 1.3
7 | B7 | 0.13

molecular target: T2, B-cat-Halo (beta-catenin HaloTag NanoBRET construct expressed in HEK293 cells) (UniProt P35222 1-781); experiment: cell-based or functional assay
T2 sequence (looked up): T1 sequence

Row | Binder | NanoBRET Abs IC50 [µM]
8 | Ac-[αAllylPro]D[tBuAla][B5(4)]D[(EtSSHex)AspE]AAFL[PyrS2″][3Thi][Bta]Q-NH2 (staple 1-4, 4-11) [I-1962] | > 20
9 | Ac-[αAllylPro][(EtSSHex)AspE][tBuAla][B5(4)]DDAAFL[PyrS2″][3Thi][Bta]Q-NH2 (staple 1-4, 4-11) [I-1960] | 20.4
10 | Ac-[αAllylPro][(EtSSPh)AspE][tBuAla][B5(4)]DDAAFL[PyrS2″][3Thi][Bta]Q-NH2 (staple 1-4, 4-11; also: isomer composition, later eluting HPLC peak) [I-1953] | > 20
11 | Ac-[αAllylPro]D[tBuAla][B5(4)][(EtSSPh)AspE]DAAFL[PyrS2″][3Thi][Bta]Q-NH2 (staple 1-4, 4-11; also: isomer composition, earlier eluting HPLC peak) [I-1954] | > 20
12 | Ac-[αAllylPro]D[tBuAla][B5(4)][(EtSSHex)AspE]DAAFL[PyrS2″][3Thi][Bta]Q-NH2 (staple 1-4, 4-11) [I-1961] | > 20
13 | Ac-[αAllylPro]D[tBuAla][B5(19)]D[TfeGA]AAF[(RDMAPyr)GlnR][PyrS2″][3Thi][Bta]Q-NH2 (staple 1-4, 4-11) [I-1939] | 20.7
14 | Ac-[αAllylPro]D[tBuAla][B5(4)]D[GluSH]AAFL[PyrS2″][3Thi][Bta]Q-NH2 (staple 1-4, 4-11; also: isomer composition, later eluting HPLC peak) [I-1949] | 28.5
15 | Ac-[αAllylPro]D[tBuAla][B5(19)]D[TfeGA]AAF[(4PyPip)GlnR][PyrS2″][3Thi][Bta]Q-NH2 (staple 1-4, 4-11) [I-1938] | 30
16 | Ac-[αAllylPro]D[tBuAla][B5(19)]D[TfeGA]AAF[(Ppz)GlnR][PyrS2″][3Thi][Bta]Q-NH2 (staple 1-4, 4-11) [I-1941] | 12.9
17 | Ac-[αAllylPro]D[tBuAla][B5(4)]D[TfeGA]AAF[(Morph)GlnR][PyrS2″][3Thi][Bta]Q-NH2 (staple 1-4, 4-11) [I-1943] | 3.8

molecular target: T1, full-length beta-Catenin (Uniprot ID …); experiment: AlphaScreen competition vs biotin-TCF4(10-53) on full-length beta-catenin
Method in brief: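 Titrated peptide was preincubated 15 minutes at 20° C, then donor and acceptor beads were added for 60 minutes at 20° C protected from light. Reads were done in duplicate, and data were fitted to a 1:1 binding model with Hill slope; concentrations are final.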

Row | Binder | EC50 [µM]
18 | B1 | 0.443
19 | B2 | 0.181
20 | B3 | 0.327
21 | B4 | 0.187
22 | B5 | 0.136
23 | B6 | 0.189
24 | B7 | 0.04
